Measurements published in PMC6510891, “Functional duplication of Rap1 in methylotrophic yeasts”.

T1: HpRap1B (Hansenula polymorpha DL-1, UniProt W1QDN2 1-576)
T1 sequence: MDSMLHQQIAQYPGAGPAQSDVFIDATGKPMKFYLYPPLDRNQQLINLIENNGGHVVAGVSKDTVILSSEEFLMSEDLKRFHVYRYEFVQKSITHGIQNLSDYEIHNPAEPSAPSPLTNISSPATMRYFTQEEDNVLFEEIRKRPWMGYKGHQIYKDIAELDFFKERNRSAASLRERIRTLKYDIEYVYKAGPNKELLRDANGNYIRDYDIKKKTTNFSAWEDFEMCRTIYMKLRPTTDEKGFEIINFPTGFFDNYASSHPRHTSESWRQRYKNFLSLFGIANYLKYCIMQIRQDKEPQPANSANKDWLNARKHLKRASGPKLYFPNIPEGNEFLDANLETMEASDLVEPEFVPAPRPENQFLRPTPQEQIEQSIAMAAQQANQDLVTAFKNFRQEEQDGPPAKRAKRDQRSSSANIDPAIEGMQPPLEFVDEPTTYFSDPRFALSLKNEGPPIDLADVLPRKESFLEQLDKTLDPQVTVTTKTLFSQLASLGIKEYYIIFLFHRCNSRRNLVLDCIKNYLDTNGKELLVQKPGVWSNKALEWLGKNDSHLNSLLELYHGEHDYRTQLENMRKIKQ

T2: HpRap1A (Hansenula polymorpha DL-1, UniProt W1Q7Z6 1-613)
T2 sequence: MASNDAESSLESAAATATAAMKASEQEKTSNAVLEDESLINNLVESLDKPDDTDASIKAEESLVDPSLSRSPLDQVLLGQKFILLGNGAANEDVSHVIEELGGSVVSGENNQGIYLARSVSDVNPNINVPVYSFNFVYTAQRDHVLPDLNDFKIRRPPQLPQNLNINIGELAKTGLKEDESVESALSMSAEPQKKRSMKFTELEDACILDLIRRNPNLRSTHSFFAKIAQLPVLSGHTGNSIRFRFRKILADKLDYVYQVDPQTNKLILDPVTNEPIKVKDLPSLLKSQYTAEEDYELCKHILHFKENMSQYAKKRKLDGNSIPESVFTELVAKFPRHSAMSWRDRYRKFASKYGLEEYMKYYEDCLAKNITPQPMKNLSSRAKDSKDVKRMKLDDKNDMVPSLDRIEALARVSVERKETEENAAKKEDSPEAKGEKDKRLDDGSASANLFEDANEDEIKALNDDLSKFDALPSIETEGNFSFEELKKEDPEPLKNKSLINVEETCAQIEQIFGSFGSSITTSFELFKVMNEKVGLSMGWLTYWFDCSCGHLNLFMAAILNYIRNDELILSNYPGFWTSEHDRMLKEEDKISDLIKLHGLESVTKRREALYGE

B1: PICPA (dsDNA)
DNA 1: GGATGCTGGATGCTGGATGCTGGATGCT
DNA 2: AGCATCCAGCATCCAGCATCCAGCATCC
B2: rnd1 (competitor) (dsDNA)
DNA 1: ACGACTCACTGTAGATACGACTCACTGTAGAT
DNA 2: ATCTACAGTGAGTCGTATCTACAGTGAGTCGT
B3: rnd2 (dsDNA)
DNA 1: AAATCTAGACATGAAAAAAAAAATGTTAGTAATCGAAATCTC
DNA 2: GAGATTTCGATTACTAACATTTTTTTTTTCATGTCTAGATTT
B4: VIIrAbs (competitor) (dsDNA)
DNA 1: GGCAGGCGGTGTAGGGATGCGGC
DNA 2: GCCGCATCCCTACACCGCCTGCC
B5: DEKBR (dsDNA)
DNA 1: GGATTGGTGGATTGGTGGATTGGT
DNA 2: ACCAATCCACCAATCCACCAATCC
B6: RPS16 (dsDNA)
DNA 1: CAAACCCCGTGTAAGGGTGCCTA
DNA 2: TAGGCACCCTTACACGGGGTTTGCCTCTACGTCCTCCTGCTCC
B7: CANAL (SPR) (dsDNA)
DNA 1: ACTTCTTGGTGTACGGATGTCTA
DNA 2: TAGACATCCGTACACCAAGAAGTCCTCTACGTCCTCCTGCTCC
B8: CANMA (dsDNA)
DNA 1: CTCGCTTGGTGTACGGATGCAGA
DNA 2: TCTGCATCCGTACACCAAGCGAG
B9: DEBHA (dsDNA)
DNA 1: GTGTTGAGGTGTAGGGATGTTGA
DNA 2: TCAACATCCCTACACCTCAACAC
B10: CANAL (competitor) (dsDNA)
DNA 1: ACTTCTTGGTGTACGGATGTCTA
DNA 2: TAGACATCCGTACACCAAGAAGT
B11: rnd1 (SPR) (dsDNA)
DNA 1: B2 DNA 1
DNA 2: ATCTACAGTGAGTCGTATCTACAGTGAGTCGTCCTCTACGTCCTCCTGCTCC
B12: RPS22b (dsDNA)
DNA 1: AATGTTCGGTTCGAGGAGTTCTT
DNA 2: AAGAACTCCTCGAACCGAACATTCCTCTACGTCCTCCTGCTCC
B13: RPL36b (dsDNA)
DNA 1: GGACAGTGGTGTAGGGGGTAGAG
DNA 2: CTCTACCCCCTACACCACTGTCCCCTCTACGTCCTCCTGCTCC
B14: CANAR (SPR) (dsDNA)
DNA 1: GGTGTTGGGTGTTGGGTGTTGGG
DNA 2: CCCAACACCCAACACCCAACACCCCTCTACGTCCTCCTGCTCC
B15: PACTA (dsDNA)
DNA 1: TGTGAGTGGTGTGAGTGGTGTGAGTGG
DNA 2: CCACTCACACCACTCACACCACTCACA
B16: HANPO4 (competitor) (dsDNA)
DNA 1: GGGTGGCGGGGTGGCGGGGTGGCGGGGTGGCG
DNA 2: CGCCACCCCGCCACCCCGCCACCCCGCCACCC

Molecular target: T1, HpRap1B
Assay: competition SPR; score - vs PICKU surface; SPR: 10 mM HEPES-NaOH pH 7.5, 150 mM NaCl, 0.5 mM DTT, 0.05% Tween 20, 1 mg/ml BSA, 0.02 mg/ml salmon sperm DNA; competition 2 nM protein with 20 or 200 nM competitor. EMSA: 20 mM HEPES-NaOH pH 7.5, 50 mM NaCl, 0.2 mg/ml BSA, 5% glycerol, 0.1 mg/ml salmon sperm DNA, room temperature
Details: protein: recombinant; blunt

Does B1 bind?
Result: no binding

Does B2 bind?
Result: no binding

Does B3 bind?
Result: no binding

Does B4 bind?
Result: no binding

Does B5 bind?
Result: no binding

Molecular target: T2, HpRap1A
Assay: SPR; kinetic fit; SPR: 10 mM HEPES-NaOH pH 7.5, 150 mM NaCl, 0.5 mM DTT, 0.05% Tween 20, 1 mg/ml BSA, 0.02 mg/ml salmon sperm DNA; competition 2 nM protein with 20 or 200 nM competitor. EMSA: 20 mM HEPES-NaOH pH 7.5, 50 mM NaCl, 0.2 mg/ml BSA, 5% glycerol, 0.1 mg/ml salmon sperm DNA, room temperature
Details: protein: recombinant; 3' overhang 20 nt on strand 2

With B6 as the binder, how does the Kd read?
Its Kd is 0.5 ± 0.08 nM.

B7 was tested. Which Kd did it give?
The Kd was 0.05 ± 0.014 nM.

Molecular target: T2, HpRap1A
Assay: competition SPR; score +++ vs VIIrAbs surface; SPR: 10 mM HEPES-NaOH pH 7.5, 150 mM NaCl, 0.5 mM DTT, 0.05% Tween 20, 1 mg/ml BSA, 0.02 mg/ml salmon sperm DNA; competition 2 nM protein with 20 or 200 nM competitor. EMSA: 20 mM HEPES-NaOH pH 7.5, 50 mM NaCl, 0.2 mg/ml BSA, 5% glycerol, 0.1 mg/ml salmon sperm DNA, room temperature
Details: protein: recombinant; blunt

Does B8 bind?
Result: binds

Does B9 bind?
Result: binds

Does B4 bind?
Result: binds

Does B10 bind?
Result: binds

Molecular target: T2, HpRap1A
Assay: SPR; SPR: 10 mM HEPES-NaOH pH 7.5, 150 mM NaCl, 0.5 mM DTT, 0.05% Tween 20, 1 mg/ml BSA, 0.02 mg/ml salmon sperm DNA; competition 2 nM protein with 20 or 200 nM competitor. EMSA: 20 mM HEPES-NaOH pH 7.5, 50 mM NaCl, 0.2 mg/ml BSA, 5% glycerol, 0.1 mg/ml salmon sperm DNA, room temperature
Details: protein: recombinant; 3' overhang 20 nt on strand 2

Does B11 bind?
Result: no binding

Does B12 bind?
Result: no binding

Does B13 bind?
Result: no binding

Does B14 bind?
Result: no binding

Molecular target: T1, HpRap1B
Assay: as above
Details: protein: recombinant; 3' overhang 20 nt on strand 2

Does B11 bind?
Result: no binding

Does B6 bind?
Result: no binding

Molecular target: T2, HpRap1A
Assay: competition SPR; score - vs VIIrAbs surface; SPR: 10 mM HEPES-NaOH pH 7.5, 150 mM NaCl, 0.5 mM DTT, 0.05% Tween 20, 1 mg/ml BSA, 0.02 mg/ml salmon sperm DNA; competition 2 nM protein with 20 or 200 nM competitor. EMSA: 20 mM HEPES-NaOH pH 7.5, 50 mM NaCl, 0.2 mg/ml BSA, 5% glycerol, 0.1 mg/ml salmon sperm DNA, room temperature
Details: protein: recombinant; blunt

Does B15 bind?
Result: no binding

Does B16 bind?
Result: no binding

Does B1 bind?
Result: no binding

Does B2 bind?
Result: no binding

Does B3 bind?
Result: no binding

Does B5 bind?
Result: no binding
